In data set [1] the test system is recombinant MiOMTS. Description: In vitro enzymatic assay of recombinant MiOMTS with candidate substrates and SAM as methyl group donor. It counts as biochemical, Mangifera indica. To be noted: 0.2 mM substrate, 0.01 mM SAM, 30° C. for 30 min; products identified by UHPLC-Orbitrap MS. As for the experimental part:
The complete ORF of MiOMTS cDNA was cloned in pGEX-4T vector and the protein was expressed as GST-tag fusion protein in E. coli BL21 (DE3) cells. The protein was purified using GST affinity chromatography and released from the tag using thrombin. […] The purified protein was assayed for its activity with furaneol, caffeic acid, catechol and protocatechuic aldehyde as substrates and S-adenosyl-L-metheonine (SAM) as methyl group donor. The methylation products of these substrates upon MiOMTS enzymatic reaction were identified and analysed on high resolution mass spectrometer. […] In contrast to furaneol and protocatechuic aldehyde, MiOMTS could not use caffeic acid and catechol as the methyl group acceptor.
(§1) The in vitro enzymatic assays were carried out in the lysis buffer containing appropriate amount of protein, 0.2 mM substrate and 0.01 mM S-adenosylmetheonine (SAM) in a final volume of 500 μl reaction. The reaction was incubated at 30° C. for 30 min. For the determination of optimum pH for the enzyme activity, the assays were performed in 50 mM citrate buffer (pH 4.0 and 5.0), 50 mM phosphate buffer (pH 6.0, 6.5, 7.0 and 7.5) and 50 mM Tris buffer (pH 8.0, 8.5 and 9.0) keeping other components in the assay same as above. Similarly, for optimum temperature the assays were performed at 15, 20, 25, 30, 35 and 40° C. Assay products were extracted twice with ethyl acetate; the organic layers were pooled, dried in a concentrator and constituted with methanol. An Accela™ ultra high performance liquid chromatography (UHPLC) system (ThermoFisher, Waltham, USA), coupled online via heated electrospray ionization source (HESI) with a Q-Exactive-Orbitrap mass spectrometer (ThermoFisher), was employed with 20 μL sample injection volume and the chromatograms were obtained by total ion monitoring in a positive ion mode. The products were separated and analysed on Hypercil GOLD C-18 reverse phase column (150 mm×3 mm i. d., particle size 5 μm, Thermo Scientific, Waltham, Mass., USA) with a linear gradient of 95% water acidified with 0.05% formic acid and 5% methanol to 80% methanol and 20% water with the flow rate of […]. The sample manager was maintained at 4° C. Identification of the substrates as well as products were done by comparing the retention time and molecular mass of authentic external standards [furaneol (CAS No. 3658-77-3), mesifuran (CAS No. 4077-47-8), protocatechuic aldehyde (CAS No. 139-85-5) and vanillin (CAS No. 121-33-5)] procured from Sigma Aldrich, USA.

Data set [2] relates to MiOMTS transcripts. To be noted: 5DAH ethylene treated vs 20DAH conventionally ripened.
Description: Quantitative real-time PCR was performed using Fast Start Universal SYBR Green master mix (Roche Inc. Indianapolis, Ind., USA) and elongation factor 1α as an endogenous control employing the primers mentioned earlier (Pandit et al., 2010). Transcripts of MiOMTS were amplified using primers;
Quantification was done by ViiA™ 7 Real-Time PCR System (Applied Biosystems, CA, USA) having thermal cycle programme of initial denaturation at 95° C. for 10 min with subsequent 40 cycles of 95° C. for 3 sec and 60° C. for 30 sec followed by a dissociation curve analysis of transcripts. […] The quantification was done for three independent biological replicates separately, each of which was represented by at least three technical replicates. […] The uniformity of expression across the tissues was monitored using elongation factor 1α (EF1α) gene as an endogenous control.
To get better understanding of synthesis of mesifuran during late ripening stages of Alphonso mango and its regulation at transcriptional level, the transcripts of MiOMTS were profiled during the conventional ripening of Alphonso mango. […] To further assess this at transcript level, the transcripts of MiOMTS were analyzed in the fruits which were subjected to the postharvest ethylene treatment.
Data set [3] has as its system recombinant MiOMTS. The data set can be described thus: Optimum pH and temperature for the activity of recombinant MiOMTS using furaneol as a substrate. Format: biochemical, Mangifera indica. Here is the method: In order to evaluate the optimum biochemical conditions for the activity of recombinant MiOMTS, assays were performed at varied pH and temperatures using furaneol as a substrate. […] In case of temperature, optimum activity was detected at 25° C., with retention of 60% activity at 30° C.
as §1

Like-named read-outs stand apart in the source and are kept apart here.

For the molecule `O=C(O)/C=C/c1ccc(O)c(O)c1` [caffeic acid], the “use of substrate as methyl group acceptor (methylation) by MiOMTS” value (from here on “use of substrate”) in data set [1] is on record as “could not use”.
On the same count and under the same terms, as for `Oc1ccccc1O` [catechol], the entry is “could not use”.
Take `C=C` [ethylene]: the “MiOMTS transcript abundance, fold higher than conventionally ripened fruits” value came out at 19 fold in data set [2] (pulp) and 82 fold in data set [2] (skin).
In the case of `CC1=C(O)C(=O)C(C)O1` (centres unmarked) [furaneol, 4-hydroxy-2,5-dimethyl-3(2H)-furanone], in data set [1], the “use of substrate” value is “successfully used for methylation”.
For `O=Cc1ccc(O)c(O)c1` [protocatechuic aldehyde], the “use of substrate” value in data set [1] is given as “successfully used for methylation”.

B1: MiOMTS: O-methyltransferase enzyme protein from Mangifera indica, having SEQ ID No.3, recombinantly expressed in E. coli (protein)
chain: MGSLEVKTLLEGQAEVWQYMFGFADSMVLKSAVELRLADIIHSYGGPMSLSQIASKIDSASPNIPYLGRIMRMLARKGVFGAHRPSEGGDTTYGLTHISTWLRHDSELSLAPMILMENNLWQLAPWHYLSQCVKQGGIAFKKAHGCEMWDFASQNPEFNKLFNDALACTTKIVMRAFLSQYKEGFNNVRSLVDVGGGTGGELAEILKTYPHMKGINFDLPHVVATAPEYDGVSNVGGNMFDAIPNADVIFMKWILHDWSDEACVKILKNCRKAIPEKTGRVVLVEIVLQENGDNMFGNMDVVFDLLMFAHTTGGKERTEPEWKKLLEEGGFPRYNIINIPALPSIIEAYPL
modifications: O-methyltransferase enzyme protein sequence; O-methyltransferase peptide or enzyme sequence
For the molecule B1, the “optimum pH for activity” value in data set [3] was 7.0. Further, the “optimum temperature for activity” value in data set [3] came to 25 °C. Besides, the “reduction in the activity” value in data set [3] (20° C.) and in data set [3] (pH 8.5) was “more than 50%” each time. Besides, the retention of activity in data set [3] (30° C., relative to 25° C.) was determined as 60%; in data set [3] (pH 6.0, relative to pH 7.0) it was 70%; in data set [3] (pH 8.0, relative to pH 7.0), 90%. In addition, the activity entry is recorded as “complete inactivation” in data set [3] (40° C.), “no activity was detected” in data set [3] (pH 4), “no activity was detected” in data set [3] (pH 5) and “no activity was detected” in data set [3] (pH 9).

For the origin of these results see US10563181B2, “Molecular cloning and expression of cDNA encoding O-methyltransferase isolated from Mangifera indica” (COUNCIL OF SCIENTIFIC & INDUSTRIAL RESEARCH, priority 2015, dated 2020).
